# Source: patent publication US20230065562A1, “DUAL CONTROLS FOR THERAPEUTIC CELL ACTIVATION OR ELIMINATION” (Bellicum Pharmaceuticals, Inc., priority 2015, published 2023)
# “Also recorded” adds a separate entry of the source.
# System: HEK293T/16 cells
# Assay: Secreted alkaline phosphatase (SEAP)-based surrogate killing assay of iCasp9 mutants
# Assay type: cell-based, human
# Details: SEAP assay without AP1903
# Method: Early passage HEK293T/16 cells (ATCC, Manassas, Va.) were maintained in IMDM, GlutaMAX™ (Life Technologies, Carlsbad, Calif.) supplemented with 10% FBS, 100 U/mL penicillin, and 100 […] until transfection in a humidified, 37° C., 5% CO2/95% air atmosphere. Cells in logarithmic-phase growth were transiently transfected with 800 ng to 2 μg of expression plasmid encoding iCasp9 mutants and 500 ng of an expression plasmid encoding SRα promoter driven SEAP per million cells in 15-mL conical tubes. […] GeneJammer® Transfection Reagent at a ratio of 3 μl per ug of plasmid DNA was used to transiently transfect HEK293T/16 cells in the absence of antibiotics. 100 μl or 2 mL of the transfection mixture was added to each well in 96-well or 6-well plate, respectively.
# Briefly, after 65° C. heat denaturation for 45 minutes to reduce background caused by endogenous (and serum-derived) alkaline phosphatases that are sensitive to heat, 5 μl of supernatants was added to 95 μl of PBS and added to 100 μl of substrate buffer, containing 1 μl of 100 mM 4-methylumbelliferyl phosphate (4-MUP; Sigma, St. Louis, Mo.) re-suspended in 2 M diethanolamine. Hydrolysis of 4-MUP by SEAP produces a fluorescent […] with excitation/emission (355/460 nm), which can be easily measured. Assays were performed in black opaque 96-well plates to minimize fluorescence leakage between wells. […] of the mixture was seeded onto each well of a 96-well plate. […] For the assay, 4-methylumbelliferyl phosphate substrate was hydrolyzed by SEAP to 4-methylumbelliferon, a metabolite that can be excited with 364 nm and detected with an emission filter of 448 nm. Since SEAP is used as a marker for cell viability, reduced SEAP reading corresponds with increased iCaspase-9 activities.
row,Molecule,Basal Activity (relative to wild type/unmodified Caspase-9)
1,"G402Y: modified iCasp9, G402Y (protein, UniProt P55211 1-416, looked up, variant G402Y, FKBP12-F36V fusion (iCasp9), CARD deleted) MDEADRRLLRRCRLRLVEELQVDQLWDALLSRELFRPHMIEDIQRAGSGSRRDQARQLIIDLETRGSQALPLFISCLEDTGQDMLASFLRTNRQAAKLSKPTLENLTPVVLRPEIRKPEVLRPETPRPVDIGSGGFGDVGALESLRGNADLAYILSMEPCGHCLIINNVNFCRESGLRTRTGSNIDCEKLRRRFSSLHFMVEVKGDLTAKKMVLALLELAQQDHGALDCCVVVILSHGCQASHLQFPGAVYGTDGCPVSVEKIVNIFNGTSCPSLGGKPKLFFIQACGGEQKDHGFEVASTSPEDESPGSNPEPDATPFQEGLRTFDQLDAISSLPTPSDIFVSYSTFPGFVSWRDPKSGSWYVETLDDIFEQWAHSEDLQSLLLRVANAVSVKGIYKQMPYCFNFLRKKLFFKTS",catalytically inactive and dead
2,"D315A: modified iCasp9, D315A (auto-proteolysis site) (protein, UniProt P55211 1-416, looked up, variant D315A, FKBP12-F36V fusion (iCasp9), CARD deleted) MDEADRRLLRRCRLRLVEELQVDQLWDALLSRELFRPHMIEDIQRAGSGSRRDQARQLIIDLETRGSQALPLFISCLEDTGQDMLASFLRTNRQAAKLSKPTLENLTPVVLRPEIRKPEVLRPETPRPVDIGSGGFGDVGALESLRGNADLAYILSMEPCGHCLIINNVNFCRESGLRTRTGSNIDCEKLRRRFSSLHFMVEVKGDLTAKKMVLALLELAQQDHGALDCCVVVILSHGCQASHLQFPGAVYGTDGCPVSVEKIVNIFNGTSCPSLGGKPKLFFIQACGGEQKDHGFEVASTSPEDESPGSNPEPAATPFQEGLRTFDQLDAISSLPTPSDIFVSYSTFPGFVSWRDPKSGSWYVETLDDIFEQWAHSEDLQSLLLRVANAVSVKGIYKQMPGCFNFLRKKLFFKTS",Decreased
3,"C403P: modified iCasp9, C403P (protein, UniProt P55211 1-416, looked up, variant C403P, FKBP12-F36V fusion (iCasp9), CARD deleted) MDEADRRLLRRCRLRLVEELQVDQLWDALLSRELFRPHMIEDIQRAGSGSRRDQARQLIIDLETRGSQALPLFISCLEDTGQDMLASFLRTNRQAAKLSKPTLENLTPVVLRPEIRKPEVLRPETPRPVDIGSGGFGDVGALESLRGNADLAYILSMEPCGHCLIINNVNFCRESGLRTRTGSNIDCEKLRRRFSSLHFMVEVKGDLTAKKMVLALLELAQQDHGALDCCVVVILSHGCQASHLQFPGAVYGTDGCPVSVEKIVNIFNGTSCPSLGGKPKLFFIQACGGEQKDHGFEVASTSPEDESPGSNPEPDATPFQEGLRTFDQLDAISSLPTPSDIFVSYSTFPGFVSWRDPKSGSWYVETLDDIFEQWAHSEDLQSLLLRVANAVSVKGIYKQMPGPFNFLRKKLFFKTS",catalytically inactive and dead
4,"D327G: modified iCasp9, D327G (protein) VDGFGDVGALESLRGNADLAYILSMEPCGHCLIINNVNFCRESGLRTRTGSNIDCEKLRRRFSSLHFMVEVKGDLTAKKMVLALLELARQDHGALDCCVVVILSHGCQASHLQFPGAVYGTDGCPVSVEKIVNIFNGTSCPSLGGKPKLFFIQACGGEQKDHGFEVASTSPEDESPGSNPEPDATPFQEGLRTFGQLDAISSLPTPSDIFVSYSTFPGFVSWRDPKSGSWYVETLDDIFEQWAHSEDLQSLLLRVANAVSVKGIYKQMPGCFNFLRKKLFFKTSASRA",did not lower basal activity; also recorded: Increased
5,"F326K: modified iCasp9, F326K (protein) VDGFGDVGALESLRGNADLAYILSMEPCGHCLIINNVNFCRESGLRTRTGSNIDCEKLRRRFSSLHFMVEVKGDLTAKKMVLALLELARQDHGALDCCVVVILSHGCQASHLQFPGAVYGTDGCPVSVEKIVNIFNGTSCPSLGGKPKLFFIQACGGEQKDHGFEVASTSPEDESPGSNPEPDATPFQEGLRTKDQLDAISSLPTPSDIFVSYSTFPGFVSWRDPKSGSWYVETLDDIFEQWAHSEDLQSLLLRVANAVSVKGIYKQMPGCFNFLRKKLFFKTSASRA",did not lower basal activity; also recorded: Increased
6,"Q328R: modified iCasp9, Q328R (protein) VDGFGDVGALESLRGNADLAYILSMEPCGHCLIINNVNFCRESGLRTRTGSNIDCEKLRRRFSSLHFMVEVKGDLTAKKMVLALLELARQDHGALDCCVVVILSHGCQASHLQFPGAVYGTDGCPVSVEKIVNIFNGTSCPSLGGKPKLFFIQACGGEQKDHGFEVASTSPEDESPGSNPEPDATPFQEGLRTFDRLDAISSLPTPSDIFVSYSTFPGFVSWRDPKSGSWYVETLDDIFEQWAHSEDLQSLLLRVANAVSVKGIYKQMPGCFNFLRKKLFFKTSASRA",did not lower basal activity; also recorded: Increased
7,"Q328K: modified iCasp9, Q328K (protein) VDGFGDVGALESLRGNADLAYILSMEPCGHCLIINNVNFCRESGLRTRTGSNIDCEKLRRRFSSLHFMVEVKGDLTAKKMVLALLELARQDHGALDCCVVVILSHGCQASHLQFPGAVYGTDGCPVSVEKIVNIFNGTSCPSLGGKPKLFFIQACGGEQKDHGFEVASTSPEDESPGSNPEPDATPFQEGLRTFDKLDAISSLPTPSDIFVSYSTFPGFVSWRDPKSGSWYVETLDDIFEQWAHSEDLQSLLLRVANAVSVKGIYKQMPGCFNFLRKKLFFKTSASRA",did not lower basal activity; also recorded: Increased
8,"D327K: modified iCasp9, D327K (protein) VDGFGDVGALESLRGNADLAYILSMEPCGHCLIINNVNFCRESGLRTRTGSNIDCEKLRRRFSSLHFMVEVKGDLTAKKMVLALLELARQDHGALDCCVVVILSHGCQASHLQFPGAVYGTDGCPVSVEKIVNIFNGTSCPSLGGKPKLFFIQACGGEQKDHGFEVASTSPEDESPGSNPEPDATPFQEGLRTFKQLDAISSLPTPSDIFVSYSTFPGFVSWRDPKSGSWYVETLDDIFEQWAHSEDLQSLLLRVANAVSVKGIYKQMPGCFNFLRKKLFFKTSASRA",did not lower basal activity; also recorded: Increased
9,"L329K: modified iCasp9, L329K (protein) VDGFGDVGALESLRGNADLAYILSMEPCGHCLIINNVNFCRESGLRTRTGSNIDCEKLRRRFSSLHFMVEVKGDLTAKKMVLALLELARQDHGALDCCVVVILSHGCQASHLQFPGAVYGTDGCPVSVEKIVNIFNGTSCPSLGGKPKLFFIQACGGEQKDHGFEVASTSPEDESPGSNPEPDATPFQEGLRTFDQKDAISSLPTPSDIFVSYSTFPGFVSWRDPKSGSWYVETLDDIFEQWAHSEDLQSLLLRVANAVSVKGIYKQMPGCFNFLRKKLFFKTSASRA",did not lower basal activity; also recorded: Increased
10,"D327R: modified iCasp9, D327R (protein) VDGFGDVGALESLRGNADLAYILSMEPCGHCLIINNVNFCRESGLRTRTGSNIDCEKLRRRFSSLHFMVEVKGDLTAKKMVLALLELARQDHGALDCCVVVILSHGCQASHLQFPGAVYGTDGCPVSVEKIVNIFNGTSCPSLGGKPKLFFIQACGGEQKDHGFEVASTSPEDESPGSNPEPDATPFQEGLRTFRQLDAISSLPTPSDIFVSYSTFPGFVSWRDPKSGSWYVETLDDIFEQWAHSEDLQSLLLRVANAVSVKGIYKQMPGCFNFLRKKLFFKTSASRA",did not lower basal activity; also recorded: Increased

# Same assay, conditions: SEAP assay without AP1903; listed as D315
row,Molecule,Basal Activity (relative to wild type/unmodified Caspase-9)
1,"D315A: modified iCasp9, D315A (auto-proteolysis site) (protein, UniProt P55211 1-416, looked up, variant D315A, FKBP12-F36V fusion (iCasp9), CARD deleted) MDEADRRLLRRCRLRLVEELQVDQLWDALLSRELFRPHMIEDIQRAGSGSRRDQARQLIIDLETRGSQALPLFISCLEDTGQDMLASFLRTNRQAAKLSKPTLENLTPVVLRPEIRKPEVLRPETPRPVDIGSGGFGDVGALESLRGNADLAYILSMEPCGHCLIINNVNFCRESGLRTRTGSNIDCEKLRRRFSSLHFMVEVKGDLTAKKMVLALLELAQQDHGALDCCVVVILSHGCQASHLQFPGAVYGTDGCPVSVEKIVNIFNGTSCPSLGGKPKLFFIQACGGEQKDHGFEVASTSPEDESPGSNPEPAATPFQEGLRTFDQLDAISSLPTPSDIFVSYSTFPGFVSWRDPKSGSWYVETLDDIFEQWAHSEDLQSLLLRVANAVSVKGIYKQMPGCFNFLRKKLFFKTS",reduced basal activity
